Source: the RNAGym collection of RNA variant scans (doi:10.1073/pnas.2313332121)

B1: TPR t1 (parent)
chain: GACCAAUCUGCCCUCAGAGCUCGAGAACAUCUUCGGAUGCAGAGGAGGCAGGCUUCGGUGGCGCGAUAGCGCCAACGUCCUCAACCUCCAAUGCAUCCCACCACAUGAUGAUGCCUGAAGAGCCUUGGUUUUUUG

Variants of: B1
Test: polymerase ribozyme fitness, log enrichment relative to wild type (log ratio); higher = more active; in vitro selection for triplet polymerase activity
How it was run: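 Libraries of mutants in each subunit of a heterodimeric triplet polymerase ribozyme were generated by PCR and transcribed. In triplicate, each went through one in vitro selection round: annealing with biotinylated primer, partner subunit and triplets; frozen incubation at −7 °C; gel excision of extended constructs; streptavidin-bead capture; RT-PCR. Fitness, taken from Illumina sequencing of input and output libraries, is the logarithm of a genotype's enrichment over wild-type enrichment, averaged across replicates with inverse-variance weights. The logarithm is base 2, and genotypes needed ≥10 input reads and ≥1 read per output to be kept.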

First: GACCAAUCUGCCCUCAGAGCUCGAGAUCAUCUUCGGAUGCAGAGGAGGCAGCCUUCGGUGGCGCGAUAGCGCCAACGUCCUCAACCUUCAAUGCAUCCCACCACAUGAUGAUGCCUGAAGAGCCUUGGUUUUUUG [A27U G52C C88U]
Second: GACCAAUCUGCCCUCAGAGCUCGAGAACAUCUUCGGAUGCAGAGGAGGCAGGCUUCGGUGGCGCGAUAGCGCCAACGUCCUCAACCUCCAAUGCAUCCCACCACAUGAUAAUGGCUGAAGAGCCUUGGUUUUUUG [G110A C114G]
The “polymerase ribozyme fitness (log ratio)” value of the first is higher: -3.31 for the first, -6.64 for the second.

First: GACCAAUCUGCCCUCUGAGCUCGAGAACAUCUUCGGAUGCAGAGGAGGCAGGCUUCGGUGGCGUGAUAGCGCCAACGUCCUCAACCACCAAUGCAUCCCACCACAUGAUGAAGCCUGGAGAGCCUUGGUUUUUUG [A16U C64U U87A U112A A118G]
Second: GACCAAUCUGCCCUCAGAGCUCGAGAACAUCUUCGGAUGCAGAGGAGGCAGGCUUCGGUGGCCCGAUAGCGCCAGCGUCCUCAAACUCCAAUGCUUCCCCCCACAUGAUGAUGCGUGAAGAGCCUCGGUUUUUUG [G63C A75G C85A A95U A100C C115G U126C]
The “polymerase ribozyme fitness (log ratio)” value of the first is higher: -2.35 for the first, -5.24 for the second.

First: GACCAAUCUGCACUCAGAGCUCGAGAACAUCUUCGGAUGCAGAGGAGGCAGGCUUCGGGGGCGCGAUAGCGCCAACGUCCUCAACCUCCAAUGCAUCCCACCACAUGAUGAUGCCUGAAGAGCCUUGGUUUUUUG [C12A U59G]
Second: GACCAAUCUGCCCUCAGAGCUCGAGAACAUCUUCGGAUUCAGAGGAGGCAGUCUUCGGUGGCGCGAUAGCGCCAACGUCCUCAACCUCCAAUGCUUCCCACCACAUGAGGAUGCCUGAAGAGCCUUGGUUUUUUG [G39U G52U A95U U109G]
The “polymerase ribozyme fitness (log ratio)” value of the first is higher: -0.837 for the first, -6.38 for the second.

GACCAAUCUGCCAUCUGAGCUCGAGAACAUCUUCGGAUGCAGAGGAGGCAGGCUUCGGUGGCGCGAUAGCGCCAACGUCCUCAACCUCCAAUGCAUCCCACCACAUGAUGAUGCCGGAAGAGCCUUGGUUUUUUG [C13A A16U U116G] and GACCAAUCUGCCCUCAGAGCUCGAGAACAUCUUCGGAUUCAGAGGAGGCCGGCUUCGGUGGCGCGAUAGCGCCAACGUCCUCAACCUCCAAUGCAUCCCACCACAUGAUGAUGCCUGAAGAGCCUUGGUUUUUUG [G39U A50C] are within 0.2 log units of each other in “polymerase ribozyme fitness (log ratio)” value: -1.13 for the first, -1.21 for the second.

Compared with GACCAAUCUGACCUCAGAGCUCGAGAACAUCUUCGGAUGCAGAGGAGGCAGGCUUCUGUGGCGCGAUAGCGCCAACGUCCUCAACCUCCAAUUCAUCCCACCACAUGAUGAUGCCUGAAGAGCCUUGGUUUUUUG [C11A G57U G93U], GACCAAUAUGCCCUCAGAGCUCGAGAACAUCUUCGGAUGCAGAGGAGGCAGGCUUCGGUGACACGAUAGCGCCAACGUCCUCAACCUCCAAUGCAUCCCACCACAUGAUGAUGCCUGAAGAGCCUUGGUUUUUUG [C8A G61A G63A] is lower in “polymerase ribozyme fitness (log ratio)” value: -3.77 for the first, -6.8 for the second.

Compared with GACCAAUCUACCCUCAGAGCUCGAGAACAUCUUCGGAUGAAGAGGAGGCAGGCUUCGGUGGCGCGAUAGCGUCAAAGUCCUCAACCUCCAAUGCAUCCAACCACAUGAUGAUGCCUGAAGAGCCUUGGUUUUUUG [G10A C40A C72U C76A C99A], GACCAAUCUGCCCUCAGAGCUCGAGAACAUCUUCGGAUGCAGAGGAGGCAGGCUUCGGUGGCGUGAUAGCGCCAAUGUCCUCAACCUCUAAUGCAACCCACCACAUGAUGAUGCCUGAAGAGCCUUGGUUUUUUG [C64U C76U C89U U96A] is higher in “polymerase ribozyme fitness (log ratio)” value: -7.55 for the first, -3.47 for the second.

GACCAAUCUGCCCUCAGAGCUCGAGAACAUCUUCGGAUGCAUAGGAGGCAGGCUUCGGUGGCGCGAUAGCCCCAACGUCCUCAACCUCCAAUGCAUCCCACCACAUGAUGAUGCCUGAAGAGCCUUGGUUUUUUG [G42U G71C] and GACCAAUCUGCGCUCAGACCUCGAGAACAUCUUCGGAUGCAGAGGAGGCAGGCUUCAGUGGCGCGAUAGCGCCAACGUCCUCAACCUCCAAUGCAUCCCACCACAUGAUGAUGCCUGAGGAGCCUUGGUUAUUUG [C12G G19C G57A A119G U131A] are within 0.2 log units of each other in “polymerase ribozyme fitness (log ratio)” value: -3.19 for the first, -3.15 for the second.

Compared with GACCAAUCUGCCUUCAGAGUUCGAGAACAUCUUCGGAUGCAGAGGAGGCAAGCUUCGGUGGCGCGGUAGCGUCAACGUCCUCAACCUCCAAUGCAUCCCACCACAUGAAGAUGCCUGAAGAGCCUUGGUUUUUUG [C13U C20U G51A A66G C72U U109A], GACCAAUCUGCCCUCAGAGCUCGAGAACAUCUUCGGAUGCACAGGAGGCAGGCUUCGGUGGCGCGAUAGCGCCAACGUCCUCAACCUCGAAUGCAUCCCACCACAUGAUGAUGCCUGAAGAGCCUUGGUUUUUUG [G42C C89G] is higher in “polymerase ribozyme fitness (log ratio)” value: -6.73 for the first, -1.06 for the second.

Going from GACCAAUCUGCCCUCAGAGUUCGAGAACAUCUUCGGAUGCAGAGGAGGCAGGCUUCGGUGGGGCGAUAGCGCCAACGUCCUCAACCUCCAAUGCAUCCCACCACAUGAUGAUGCCUGAAGAGCCUUGGUUUUUUG [C20U C62G] to GACCAAUCUGCCCUCAGAGCUCGAGAACAUCUUCGGAUGCAGAGGAGGCAGGCAUCGGUGGUGCGAUAGCGCCAACGUCCUCAACCUCCAAUGCAUCCCACCACAUGAUGAUGCCUGAAGAGCCUUGGUUUUUUG [U54A C62U], the “polymerase ribozyme fitness (log ratio)” value rises from -3.42 to -1.02.

GACCAAUCUGCCCUCAGAGCUCGAGAACAUCUUCGGAUGCAGAGGAGGCAGGCUUCGGUGGCGCGAUAGUGCCAACGUCCACAACCUCCAAUGCAUCCCACCACAUGAUGAUGCCGGAAGAGCCUUGGUUUUUUG [C70U U81A U116G] and GACCAAUCUGCCCUCAGAGCUCGUGAACAUCUUCGGAUGCAGAGGAGGCAGGCUUCGGUGGCGCGAUAGCGCCAACGUCCUCAACCUCCAAUGCAUCCCACCACAUGAUGAUGCCUGAAGAGGCUUGGUUUUUUG [A24U C123G] are within 0.2 log units of each other in “polymerase ribozyme fitness (log ratio)” value: -3.38 for the first, -3.41 for the second.

In the case of GACCAAUCUGCCCUCAGAGCUCGAGAACAUCUUCGGAUGCAGAGGUGGCAGGCUUCGGUGGCGCGAUAGCGCCAACAUCCUCAACCUCCAAUGCGUCCCACCACAUGAUGAUGCCUGAAGAGCCUUGGUUUUUUG [A46U G77A A95G], the “polymerase ribozyme fitness (log ratio)” value is reported as -1.31.
